5 molecules from paper PMC10607609, “The Functionality of IbpA from Acholeplasma laidlawii Is Governed by Dynamic Rearrangement of Its Globular–Fibrillar Quaternary Structure” (International Journal of Molecular Sciences, 2023) can be followed below.

Experiment [1] concerns the target AlDnaKST, recombinant C-terminally StrepII-tagged DnaK (HSP70) from Acholeplasma laidlawii (Acholeplasma laidlawii) (UniProt A9NFN8). The experiment in a line: BLI; BLItz; biotinylated AlDnaKST or AlClpBST loaded on a streptavidin biosensor (2.0 nm); analyte in PBS pH 7.4; 300 s association, 300 s dissociation; BSA control subtracted. (In BLI a coated tip is dipped into the sample, and binding shifts an interference pattern.)

Experiment [2] deals with full-length AlIbpA_(His6), small heat shock protein IbpA from Acholeplasma laidlawii (Acholeplasma laidlawii) (UniProt A9NFB2). The experiment can be described thus: BLI; BLItz; biotinylated AlIbpA_(His6) loaded on a streptavidin biosensor (2.0 nm); analyte 10 µM in PBS pH 7.4; 300 s association, 300 s dissociation; BSA control subtracted.
Experiment [3] addresses T1, AlDnaKST, recombinant C-terminally StrepII-tagged DnaK (HSP70) from Acholeplasma laidlawii (Acholeplasma laidlawii, UniProt A9NFN8 1-610, biotin (EZ-Link NHS-PEG4-biotin) where it was the protein immobilised on the streptavidin biosensor).
T1 construct: DnaK (HSP70) of Acholeplasma laidlawii, from a synthetic gene dnaK cloned in pET-28a(+); Plasmid pET-28a-AlDnaKST; source: E. coli BL21 (DE3), purified (Strep-tactin agarose); not shown: StrepII, C-terminal, kept
Described as above. Particulars: both partners purified.

Experiment [4] concerns the target AlClpBST, recombinant C-terminally StrepII-tagged ClpB (HSP100) from Acholeplasma laidlawii (Acholeplasma laidlawii). The experiment can be described thus: BLI; BLItz; biotinylated AlDnaKST or AlClpBST loaded on a streptavidin biosensor (2.0 nm); analyte in PBS pH 7.4; 300 s association, 300 s dissociation; BSA control subtracted.
In experiment [5] the target is T1, AlDnaKST, recombinant C-terminally …. Described as above. The following applies: both partners purified.

As usually defined, the Kd is the concentration at which binding is half-saturated. On to “AlClpBST, recombinant C-terminally StrepII-tagged ClpB (HSP100) from Acholeplasma laidlawii (natural protein)”, for which the figures for the Kd in experiment [1] and in experiment [2] were 20300 nM and 1200 nM, respectively. On to “AlIbpA∆N12_(His6)–insulin complex, chemically cross-linked with glutaraldehyde (from UniProt A9NFB2 13-137)”, for which the fold increase in KD against AlIbpA∆N12 (His6) alone in experiment [1] was 2 fold. In experiment [2], human insulin (ligand) had a Kd of 100 nM.

B1: full-length AlIbpA_(His6), small heat shock protein IbpA from Acholeplasma laidlawii (natural protein, UniProt A9NFB2 1-137, looked up)
chain: MLSLLNKNRSFFDDFFEDFNVLNPVTTSNLMRTDIKETQNGYSLSVELPGFKKEDVKVSLEDGYLTIEAHTSKNSETKDQATKYIRKERYEGTMKRSYYVGNLHLDEINGTFENGMLHIELPKETKKEPEKRYLELK
modifications: biotin (EZ-Link NHS-PEG4-biotin) where it was the protein immobilised on the streptavidin biosensor
notes: Forms globular and fibrillar oligomers; also called HSP20; sHSP; source: E. coli BL21 (DE3), purified (Ni-NTA agarose)
Consider B1, for which the dissociation constant Kd in experiment [3] is 3100 nM; in experiment [4] it was 200 nM; in experiment [5], 100 nM.

B2: AlIbpAΔN12_(His6), AlIbpA lacking 12 N-terminal amino acid residues (domain or fragment, Acholeplasma laidlawii, UniProt A9NFB2 13-137, looked up)
chain: DDFFEDFNVLNPVTTSNLMRTDIKETQNGYSLSVELPGFKKEDVKVSLEDGYLTIEAHTSKNSETKDQATKYIRKERYEGTMKRSYYVGNLHLDEINGTFENGMLHIELPKETKKEPEKRYLELK
notes: The limit 13 is worked out from 'removal of 12 N-terminal amino acid residuals'; Forms mostly fibrils; also called AlIbpA∆N12_(His6); AlIbpAN12_(His6); source: E. coli BL21 (DE3), purified (Ni-NTA agarose)
As to B2, the “fold decrease of binding affinity against full-length AlIbpA_(His6)” value in experiment [5] amounted to 15 fold.
